The values that follow come from patent US20230287095A1 (published 2023).

Like-named read-outs stand apart in the source and are kept apart here.

Experiment in all cases: ELISA
Test [1] deals with T1, human pro-EMAPII (human, UniProt Q12904 1-312).
T1 chain: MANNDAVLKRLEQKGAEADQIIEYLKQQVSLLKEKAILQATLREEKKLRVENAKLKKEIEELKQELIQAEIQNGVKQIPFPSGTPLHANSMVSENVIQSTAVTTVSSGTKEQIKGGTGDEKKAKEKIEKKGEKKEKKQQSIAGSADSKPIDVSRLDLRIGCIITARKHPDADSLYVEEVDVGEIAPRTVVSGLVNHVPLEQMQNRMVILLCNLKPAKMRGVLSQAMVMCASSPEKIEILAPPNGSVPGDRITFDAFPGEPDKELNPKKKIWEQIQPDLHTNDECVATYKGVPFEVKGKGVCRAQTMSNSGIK

For test [2], the target named is T1, human pro-EMAPII.
Test [3] addresses T1, human pro-EMAPII.
In test [4] the target is T1, human pro-EMAPII.

B1: Rat parental (antibody, V domains shown)
VH: AVHLVESGGGFVQPTESLKISCAASGFTFSDAAMYWVRQAPGKGLEWVARIRTKPNNYATYYADSVKGRFTISRDDSKSMVYLQMDNLKTEDTAMYYCTSWSYDFDYWGQGVMVTVSS
VL: DIVMTQGALPNPVPSGESASITCQSSKSLLHSSGKTYLNWYLQRPGQSPHLLIYWMSTRASGVSDRLSGSGSGTDFTLKISSVEAEDVGVYYCQQFLEYPLTFGSGTKLEIK
As for B1, the 50% effective concentration (EC50) in test [1] stood at 3.6 µg/mL; in test [2], 3.39 µg/mL; in test [3], 3.6 µg/mL; in test [4] it was 3.39 µg/mL.

B2: Chimeric Parental (antibody, V domains shown)
VH: AVHLVESGGGFVQPTESLKISCAASGFTFSDAAMYWVRQAPGKGLEWVARIRTKPNNYATYYADSVKGRFTISRDDSKSMVYLQMDNLKTEDTAMYYCTSWSYDFDYWGQGVMVTVSS
VL: DIVMTQGALPNPVPSGESASITCQSSKSLLHSSGKTYLNWYLQRPGQSPHLLIYWMSTRASGVSDRLSGSGSGTDFTLKISSVEAEDVGVYYCQQFLEYPLTFGSGTKLEIK
Regarding B2, the EC50 in test [1] was 0.361 µg/mL; in test [2], 0.329 µg/mL; in test [3], 0.361 µg/mL; in test [4] it was 0.329 µg/mL.
